Data taken from IntAct's records for PubMed 31515488.
Each block holds one substance with its values, some of them ahead of it.

What was measured:
[1] = biological target: glrx3_human GLRX3 (UniProt O76003)
[2] = biological target: ndor1_human NDOR1 (UniProt Q9UHB4)
[3] = biological target: ntaq1_human NTAQ1 (UniProt Q96HA8)
[4] = biological target: zksc4_human ZKSCAN4 (UniProt Q969J2)
[5] = biological target: pak1_human PAK1 (UniProt Q13153)
[6] = biological target: trip6_human TRIP6 (UniProt Q15654)
[7] = biological target: rasf7_human RASSF7 (UniProt Q02833)
[8] = biological target: tpp2_human TPP2 (UniProt P29144)
[9] = biological target: tri23_human TRIM23 (UniProt P36406)
[10] = biological target: adas_human AGPS (UniProt O00116)
[11] = biological target: T1, dmc1_human DMC1 (UniProt Q14565)
T1 sequence: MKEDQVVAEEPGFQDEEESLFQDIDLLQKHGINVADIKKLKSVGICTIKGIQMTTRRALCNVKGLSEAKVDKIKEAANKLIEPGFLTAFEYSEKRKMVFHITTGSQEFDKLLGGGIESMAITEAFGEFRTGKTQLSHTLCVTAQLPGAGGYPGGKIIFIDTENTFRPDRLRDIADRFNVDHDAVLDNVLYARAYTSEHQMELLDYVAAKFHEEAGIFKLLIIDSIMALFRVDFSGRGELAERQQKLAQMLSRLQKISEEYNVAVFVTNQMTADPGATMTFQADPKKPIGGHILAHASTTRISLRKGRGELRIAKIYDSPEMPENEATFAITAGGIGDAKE

[12] = biological target: ei2ba_human EIF2B1 (UniProt Q14232)
[13] = biological target: dpyl2_human DPYSL2 (UniProt Q16555)
[14] = biological target: phs_human PCBD1 (UniProt P61457)
[15] = biological target: zmat1_human ZMAT1 (UniProt Q5H9K5)
[16] = biological target: T2, acy3_human ACY3 (UniProt Q96HD9)
T2 sequence: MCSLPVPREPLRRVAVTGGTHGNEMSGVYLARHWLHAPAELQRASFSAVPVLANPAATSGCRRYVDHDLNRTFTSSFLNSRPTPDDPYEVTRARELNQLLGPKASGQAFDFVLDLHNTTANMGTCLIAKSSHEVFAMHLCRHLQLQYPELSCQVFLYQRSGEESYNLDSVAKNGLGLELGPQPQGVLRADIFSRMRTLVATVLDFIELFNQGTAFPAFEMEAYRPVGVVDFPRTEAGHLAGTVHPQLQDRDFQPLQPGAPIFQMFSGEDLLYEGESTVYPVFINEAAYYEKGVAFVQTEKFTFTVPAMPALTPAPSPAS

[17] = biological target: cryaa_human CRYAA (UniProt P02489)
[18] = biological target: cep63_human CEP63 (UniProt Q96MT8)
[19] = biological target: lpxn_human LPXN (UniProt O60711)
[20] = biological target: stk24_human STK24 (UniProt Q9Y6E0)
[21] = biological target: stk25_human STK25 (UniProt O00506)
[22] = biological target: frih_human FTH1 (UniProt P02794)
[23] = biological target: scel_human SCEL (UniProt O95171)
[24] = biological target: T3, cep55_human CEP55 (UniProt Q53EZ4)
T3 sequence: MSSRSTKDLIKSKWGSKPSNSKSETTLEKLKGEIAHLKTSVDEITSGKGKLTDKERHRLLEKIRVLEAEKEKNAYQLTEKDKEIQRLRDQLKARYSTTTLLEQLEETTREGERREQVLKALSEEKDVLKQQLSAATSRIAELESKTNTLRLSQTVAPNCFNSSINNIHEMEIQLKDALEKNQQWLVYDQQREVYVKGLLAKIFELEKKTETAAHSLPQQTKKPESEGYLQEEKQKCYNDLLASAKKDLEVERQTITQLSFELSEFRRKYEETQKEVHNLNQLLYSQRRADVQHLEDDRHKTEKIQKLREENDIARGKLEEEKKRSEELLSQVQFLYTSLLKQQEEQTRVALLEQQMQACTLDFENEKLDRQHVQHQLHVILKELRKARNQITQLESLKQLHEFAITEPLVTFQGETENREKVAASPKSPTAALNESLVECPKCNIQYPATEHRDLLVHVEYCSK

[25] = biological target: T4, lc7l2_human LUC7L2 (UniProt Q9Y383)
T4 sequence: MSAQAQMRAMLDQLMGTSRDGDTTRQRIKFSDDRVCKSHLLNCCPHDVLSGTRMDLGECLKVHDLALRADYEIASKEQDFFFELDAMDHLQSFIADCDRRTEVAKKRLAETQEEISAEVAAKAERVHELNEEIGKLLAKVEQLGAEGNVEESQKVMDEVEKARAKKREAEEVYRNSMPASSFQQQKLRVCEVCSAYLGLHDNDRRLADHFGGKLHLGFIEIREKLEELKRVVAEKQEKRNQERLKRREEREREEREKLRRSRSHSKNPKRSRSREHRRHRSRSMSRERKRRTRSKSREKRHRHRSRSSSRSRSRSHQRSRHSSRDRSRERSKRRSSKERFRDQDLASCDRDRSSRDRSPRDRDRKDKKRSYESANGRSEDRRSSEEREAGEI

[26] = biological target: T5, rnps1_human RNPS1 (UniProt Q15287)
T5 sequence: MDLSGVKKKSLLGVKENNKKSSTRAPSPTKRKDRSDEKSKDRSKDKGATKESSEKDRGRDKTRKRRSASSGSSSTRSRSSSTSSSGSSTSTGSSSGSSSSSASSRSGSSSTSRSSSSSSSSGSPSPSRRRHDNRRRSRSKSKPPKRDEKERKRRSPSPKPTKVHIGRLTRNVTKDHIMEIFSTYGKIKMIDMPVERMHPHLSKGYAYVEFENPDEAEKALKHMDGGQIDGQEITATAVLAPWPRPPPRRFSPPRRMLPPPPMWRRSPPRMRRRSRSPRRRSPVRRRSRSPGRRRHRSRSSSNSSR

[27] = biological target: echp_human EHHADH (UniProt Q08426)
[28] = biological target: pp16a_human PPP1R16A (UniProt Q96I34)
[29] = biological target: dpolb_human POLB (UniProt P06746)
[30] = biological target: klhl2_human KLHL2 (UniProt O95198)
[31] = biological target: clip4_human CLIP4 (UniProt Q8N3C7)
[32] = biological target: sf3a3_human SF3A3 (UniProt Q12874)
[33] = biological target: FAM90A1 (UniProt Q86YD7)
[34] = biological target: mdfi_human MDFI (UniProt Q99750)
[35] = biological target: zc4h2_human ZC4H2 (UniProt Q9NQZ6)
[36] = biological target: kr107_human KRTAP10-7 (UniProt P60409)
[37] = biological target: sufu_human SUFU (UniProt Q9UMX1)
[38] = biological target: rby1a_human RBMY1A1 (UniProt P0DJD3)
[39] = biological target: nkap1_human NKAPD1 (UniProt Q6ZUT1)
[40] = biological target: aen_human AEN (UniProt Q8WTP8)
[41] = biological target: gpt2l_human GPATCH2L (UniProt Q9NWQ4)
[42] = biological target: mfap1_human MFAP1 (UniProt P55081)
[43] = biological target: sufu_human SUFU (UniProt Q9UMX1); remark: listed apart in the source

Cytoplasmic protein NCK2 (Homo sapiens), O43639 E125K, sequence (O43639 whole entry E125K): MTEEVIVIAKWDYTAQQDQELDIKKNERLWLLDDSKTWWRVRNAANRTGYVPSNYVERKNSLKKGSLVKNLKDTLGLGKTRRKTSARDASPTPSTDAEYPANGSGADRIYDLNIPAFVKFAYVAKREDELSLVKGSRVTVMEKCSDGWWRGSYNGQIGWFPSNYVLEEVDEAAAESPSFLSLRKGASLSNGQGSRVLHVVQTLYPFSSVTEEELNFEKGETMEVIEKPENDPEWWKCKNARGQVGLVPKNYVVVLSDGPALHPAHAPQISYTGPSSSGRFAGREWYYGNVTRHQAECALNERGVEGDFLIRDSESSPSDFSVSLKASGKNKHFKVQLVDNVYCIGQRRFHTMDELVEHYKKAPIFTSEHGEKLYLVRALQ
Zinc finger protein 223 (Homo sapiens), Q9UK11 S357A, sequence (Q9UK11 whole entry S357A): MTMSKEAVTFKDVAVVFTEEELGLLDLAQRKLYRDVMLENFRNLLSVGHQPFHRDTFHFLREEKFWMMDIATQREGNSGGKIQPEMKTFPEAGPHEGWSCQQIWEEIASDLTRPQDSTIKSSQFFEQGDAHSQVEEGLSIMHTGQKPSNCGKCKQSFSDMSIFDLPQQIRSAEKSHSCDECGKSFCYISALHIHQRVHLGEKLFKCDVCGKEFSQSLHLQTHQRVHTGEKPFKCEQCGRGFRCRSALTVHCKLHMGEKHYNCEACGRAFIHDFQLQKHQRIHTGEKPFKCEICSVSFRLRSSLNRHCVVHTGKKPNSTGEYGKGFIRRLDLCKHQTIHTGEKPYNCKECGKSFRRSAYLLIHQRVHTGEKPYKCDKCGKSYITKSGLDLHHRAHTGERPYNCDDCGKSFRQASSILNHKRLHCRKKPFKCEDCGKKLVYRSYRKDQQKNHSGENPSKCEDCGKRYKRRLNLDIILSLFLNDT
Zinc finger protein 317 (Homo sapiens), Q96PQ6 Q19H, sequence (Q96PQ6 whole entry Q19H): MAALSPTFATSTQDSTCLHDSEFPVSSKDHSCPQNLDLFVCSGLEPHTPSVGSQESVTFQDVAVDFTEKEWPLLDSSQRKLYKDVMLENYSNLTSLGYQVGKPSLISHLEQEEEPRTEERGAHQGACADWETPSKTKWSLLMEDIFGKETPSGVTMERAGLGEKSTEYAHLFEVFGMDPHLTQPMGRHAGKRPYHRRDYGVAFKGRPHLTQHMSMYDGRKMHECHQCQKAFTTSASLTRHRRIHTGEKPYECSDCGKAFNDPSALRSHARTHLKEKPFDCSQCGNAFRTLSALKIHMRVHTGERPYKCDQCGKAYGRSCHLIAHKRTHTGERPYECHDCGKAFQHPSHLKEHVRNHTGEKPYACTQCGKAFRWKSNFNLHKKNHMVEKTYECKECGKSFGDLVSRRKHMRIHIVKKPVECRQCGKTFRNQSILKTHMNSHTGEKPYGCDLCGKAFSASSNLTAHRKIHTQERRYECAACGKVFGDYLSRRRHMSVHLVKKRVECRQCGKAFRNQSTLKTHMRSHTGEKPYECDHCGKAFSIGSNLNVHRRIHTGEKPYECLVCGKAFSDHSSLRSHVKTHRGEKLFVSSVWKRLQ
Anamorsin (Homo sapiens), Q6FI81 A34E, sequence (Q6FI81 whole entry A34E): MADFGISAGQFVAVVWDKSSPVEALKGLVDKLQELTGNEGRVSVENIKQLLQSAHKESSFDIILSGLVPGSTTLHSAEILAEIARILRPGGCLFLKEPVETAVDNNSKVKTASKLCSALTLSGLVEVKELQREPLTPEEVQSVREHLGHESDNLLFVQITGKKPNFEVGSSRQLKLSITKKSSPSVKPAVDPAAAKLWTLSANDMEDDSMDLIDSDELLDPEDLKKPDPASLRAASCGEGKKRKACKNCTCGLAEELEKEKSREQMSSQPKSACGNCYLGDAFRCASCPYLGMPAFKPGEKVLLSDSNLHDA
sufu_human SUFU, sequence (Q9UMX1 whole entry): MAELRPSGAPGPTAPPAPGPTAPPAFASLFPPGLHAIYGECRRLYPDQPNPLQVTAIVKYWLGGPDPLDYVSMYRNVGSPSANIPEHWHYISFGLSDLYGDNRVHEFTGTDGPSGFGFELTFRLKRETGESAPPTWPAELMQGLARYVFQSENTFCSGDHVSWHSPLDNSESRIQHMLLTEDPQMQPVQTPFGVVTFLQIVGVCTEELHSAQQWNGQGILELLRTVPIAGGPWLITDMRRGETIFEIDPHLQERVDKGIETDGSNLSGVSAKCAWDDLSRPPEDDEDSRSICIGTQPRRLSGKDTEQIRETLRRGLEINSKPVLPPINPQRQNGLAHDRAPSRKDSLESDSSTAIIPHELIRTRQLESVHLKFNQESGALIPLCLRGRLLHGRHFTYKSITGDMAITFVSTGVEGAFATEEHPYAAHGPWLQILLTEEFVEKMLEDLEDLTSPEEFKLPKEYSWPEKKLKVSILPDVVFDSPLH
Zinc finger protein 212 (Homo sapiens), Q9UDV6 E225K, sequence (Q9UDV6 whole entry E225K): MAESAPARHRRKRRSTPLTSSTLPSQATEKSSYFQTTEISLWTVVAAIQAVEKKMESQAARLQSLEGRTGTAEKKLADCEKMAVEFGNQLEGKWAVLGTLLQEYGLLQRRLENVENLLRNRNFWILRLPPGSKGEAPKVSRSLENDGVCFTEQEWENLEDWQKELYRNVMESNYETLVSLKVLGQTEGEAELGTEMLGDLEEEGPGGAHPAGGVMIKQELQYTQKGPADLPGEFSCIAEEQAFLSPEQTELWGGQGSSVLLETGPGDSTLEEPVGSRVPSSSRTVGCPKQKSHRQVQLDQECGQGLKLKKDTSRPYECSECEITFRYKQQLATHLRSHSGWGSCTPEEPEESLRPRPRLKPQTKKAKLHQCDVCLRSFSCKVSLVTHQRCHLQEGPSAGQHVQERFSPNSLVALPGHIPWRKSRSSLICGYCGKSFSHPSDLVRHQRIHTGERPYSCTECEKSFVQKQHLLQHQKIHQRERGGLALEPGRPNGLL
Zinc finger protein 114 (Homo sapiens), Q8NC26 V207A, sequence (Q8NC26 whole entry V207A): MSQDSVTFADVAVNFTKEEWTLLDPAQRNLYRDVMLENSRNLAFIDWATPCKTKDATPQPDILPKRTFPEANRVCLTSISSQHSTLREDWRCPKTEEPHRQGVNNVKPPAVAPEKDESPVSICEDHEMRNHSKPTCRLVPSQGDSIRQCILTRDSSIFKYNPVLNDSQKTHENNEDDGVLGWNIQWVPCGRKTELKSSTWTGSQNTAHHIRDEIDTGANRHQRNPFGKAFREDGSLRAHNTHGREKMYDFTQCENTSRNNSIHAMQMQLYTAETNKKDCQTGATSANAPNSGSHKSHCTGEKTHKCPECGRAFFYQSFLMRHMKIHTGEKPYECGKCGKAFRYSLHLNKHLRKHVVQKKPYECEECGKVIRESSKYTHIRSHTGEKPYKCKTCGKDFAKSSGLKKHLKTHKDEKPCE
FAM90A1, sequence (Q86YD7 whole entry): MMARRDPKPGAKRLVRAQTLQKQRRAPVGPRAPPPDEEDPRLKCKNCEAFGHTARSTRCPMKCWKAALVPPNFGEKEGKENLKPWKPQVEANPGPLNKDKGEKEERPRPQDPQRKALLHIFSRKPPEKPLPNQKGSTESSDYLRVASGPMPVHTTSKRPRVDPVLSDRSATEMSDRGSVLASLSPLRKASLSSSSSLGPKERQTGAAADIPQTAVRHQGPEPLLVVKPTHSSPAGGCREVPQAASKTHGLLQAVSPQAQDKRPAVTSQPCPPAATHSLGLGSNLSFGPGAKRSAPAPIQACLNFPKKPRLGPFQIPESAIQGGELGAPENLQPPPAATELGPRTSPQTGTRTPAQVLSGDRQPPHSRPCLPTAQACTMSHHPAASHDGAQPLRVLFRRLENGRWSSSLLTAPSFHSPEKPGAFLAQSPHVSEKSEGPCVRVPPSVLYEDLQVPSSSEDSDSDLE
sf3a3_human SF3A3, sequence (Q12874 whole entry): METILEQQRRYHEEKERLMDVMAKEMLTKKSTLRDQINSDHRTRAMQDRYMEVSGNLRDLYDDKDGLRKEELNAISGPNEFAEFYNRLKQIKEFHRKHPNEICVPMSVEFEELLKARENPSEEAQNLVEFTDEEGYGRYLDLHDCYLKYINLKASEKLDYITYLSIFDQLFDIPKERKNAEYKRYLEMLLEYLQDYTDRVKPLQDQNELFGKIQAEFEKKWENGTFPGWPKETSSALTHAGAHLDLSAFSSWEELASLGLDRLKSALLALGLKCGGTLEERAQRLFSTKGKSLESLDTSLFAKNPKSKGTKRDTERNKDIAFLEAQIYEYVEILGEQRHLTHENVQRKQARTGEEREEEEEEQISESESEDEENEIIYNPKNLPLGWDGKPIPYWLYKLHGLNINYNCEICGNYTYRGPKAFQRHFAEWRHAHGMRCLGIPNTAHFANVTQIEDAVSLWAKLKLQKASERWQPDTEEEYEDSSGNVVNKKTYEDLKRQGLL
echp_human EHHADH, sequence (Q08426 whole entry): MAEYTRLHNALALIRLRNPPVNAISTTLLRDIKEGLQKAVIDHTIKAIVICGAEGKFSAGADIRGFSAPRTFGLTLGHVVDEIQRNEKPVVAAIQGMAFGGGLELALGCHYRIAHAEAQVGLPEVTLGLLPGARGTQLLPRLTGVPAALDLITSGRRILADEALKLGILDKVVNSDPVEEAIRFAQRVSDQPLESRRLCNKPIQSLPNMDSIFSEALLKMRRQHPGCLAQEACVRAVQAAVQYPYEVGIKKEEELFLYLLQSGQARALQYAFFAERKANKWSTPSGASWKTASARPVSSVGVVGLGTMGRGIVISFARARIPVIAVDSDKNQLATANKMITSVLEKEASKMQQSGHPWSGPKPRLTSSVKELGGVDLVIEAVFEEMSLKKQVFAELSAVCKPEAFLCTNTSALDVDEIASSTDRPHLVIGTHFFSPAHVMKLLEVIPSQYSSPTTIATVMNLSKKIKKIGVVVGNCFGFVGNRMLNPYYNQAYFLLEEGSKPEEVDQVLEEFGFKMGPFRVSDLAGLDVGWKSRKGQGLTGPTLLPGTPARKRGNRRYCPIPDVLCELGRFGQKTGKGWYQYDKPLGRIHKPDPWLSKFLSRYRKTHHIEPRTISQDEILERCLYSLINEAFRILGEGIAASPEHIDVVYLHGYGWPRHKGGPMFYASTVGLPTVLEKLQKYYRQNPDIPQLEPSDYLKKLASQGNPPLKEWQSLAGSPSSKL
Zinc finger protein 212 (Homo sapiens), Q9UDV6 H293Y, sequence (Q9UDV6 whole entry H293Y): as the sequence (Q9UDV6 whole entry E225K) above, with K225E, H293Y counted along it

Substance: Argininosuccinate lyase (Homo sapiens), P04424 R12Q
effect of a mutation on the interaction [3]: with no effect

Substance: Calcium-binding protein 5 (Homo sapiens), Q9NP86 E140K
effect of a mutation on the interaction [4]: with no effect

Substance: DNA polymerase beta (Homo sapiens) (from UniProt P06746) P242R
effect of a mutation on the interaction [8]: with no effect

Substance: FAD synthase (Homo sapiens), Q8NFF5 R437H
effect of a mutation on the interaction [9]: with no effect

Substance: Homeobox protein Hox-C9 (Homo sapiens), P31274 A122V
effect of a mutation on the interaction [19]: with no effect

Substance: Programmed cell death protein 10 (Homo sapiens), Q9BUL8 M20V
effect of a mutation on the interaction [20]: with no effect

Substance: Programmed cell death protein 10 (Homo sapiens), Q9BUL8 M92V
effect of a mutation on the interaction [21]: with no effect

Substance: RNA-binding protein FXR2 (Homo sapiens), P51116 R483Q
effect of a mutation on the interaction [22]: with no effect | effect of a mutation on the interaction [23]: with no effect

Substance: Ribosomal RNA small subunit methyltransferase NEP1 (Homo sapiens) (from UniProt Q92979) A34G
effect of a mutation on the interaction [24]: with no effect

Substance: Serine/arginine-rich splicing factor 6 (Homo sapiens) (from UniProt Q13247-1) R145Q
effect of a mutation on the interaction [25]: with no effect | effect of a mutation on the interaction [26]: with no effect

Substance: Zinc finger protein 263 (Homo sapiens), O14978 C310S
effect of a mutation on the interaction [37]: with no effect

Substance: Zinc finger protein 317 (Homo sapiens), Q96PQ6 Q19H
effect of a mutation on the interaction [38]: with no effect | effect of a mutation on the interaction [39]: with no effect | effect of a mutation on the interaction [40]: with no effect

Substance: Zinc finger protein 398 (Homo sapiens), Q8TD17 V252M
effect of a mutation on the interaction [41]: with no effect | effect of a mutation on the interaction [42]: with no effect

Second part, the substance after the results:

effect of a mutation on the interaction [1]: with no effect | effect of a mutation on the interaction [2]: disrupting interaction strength
Substance: Anamorsin (Homo sapiens), Q6FI81 A34E

effect of a mutation on the interaction [5]: with no effect | effect of a mutation on the interaction [6]: with no effect | effect of a mutation on the interaction [7]: with no effect
Substance: Cytoplasmic protein NCK2 (Homo sapiens), O43639 E125K

effect of a mutation on the interaction [10]: with no effect
Substance: Golgi reassembly-stacking protein 1 (Homo sapiens), Q9BQQ3 T425M

effect of a mutation on the interaction [11]: with no effect | effect of a mutation on the interaction [12]: with no effect | effect of a mutation on the interaction [13]: with no effect | effect of a mutation on the interaction [14]: with no effect | effect of a mutation on the interaction [15]: with no effect | effect of a mutation on the interaction [16]: with no effect | effect of a mutation on the interaction [17]: with no effect
Substance: Golgi reassembly-stacking protein 2 (Homo sapiens) (from UniProt Q9H8Y8) T415M

effect of a mutation on the interaction [18]: disrupting interaction strength
Substance: Histone-lysine N-methyltransferase EZH2 (Homo sapiens), Q15910 M439T

effect of a mutation on the interaction [27]: with no effect | effect of a mutation on the interaction [28]: with no effect | effect of a mutation on the interaction [29]: with no effect
Substance: Tripeptidyl-peptidase 2 (Homo sapiens), P29144 T998R

effect of a mutation on the interaction [27]: with no effect | effect of a mutation on the interaction [28]: with no effect | effect of a mutation on the interaction [29]: with no effect
Substance: Tripeptidyl-peptidase 2 (Homo sapiens), P29144 V1121I

effect of a mutation on the interaction [30]: with no effect | effect of a mutation on the interaction [31]: with no effect
Substance: Zinc finger protein 114 (Homo sapiens), Q8NC26 V207A

effect of a mutation on the interaction [32]: with no effect | effect of a mutation on the interaction [33]: with no effect
Substance: Zinc finger protein 212 (Homo sapiens), Q9UDV6 E225K

effect of a mutation on the interaction [32]: with no effect | effect of a mutation on the interaction [33]: with no effect
Substance: Zinc finger protein 212 (Homo sapiens), Q9UDV6 H293Y

effect of a mutation on the interaction [34]: with no effect | effect of a mutation on the interaction [35]: with no effect | effect of a mutation on the interaction [36]: with no effect
Substance: Zinc finger protein 223 (Homo sapiens), Q9UK11 S357A

effect of a mutation on the interaction [43]: with no effect
Substance: Zinc finger protein 747 (Homo sapiens), Q9BV97 G28R
